Laboratory results published in paper PMC7104187.

Biological target: T1, SauCas9 (Staphylococcus aureus, UniProt J7RUA5 1-1053)
T1 sequence: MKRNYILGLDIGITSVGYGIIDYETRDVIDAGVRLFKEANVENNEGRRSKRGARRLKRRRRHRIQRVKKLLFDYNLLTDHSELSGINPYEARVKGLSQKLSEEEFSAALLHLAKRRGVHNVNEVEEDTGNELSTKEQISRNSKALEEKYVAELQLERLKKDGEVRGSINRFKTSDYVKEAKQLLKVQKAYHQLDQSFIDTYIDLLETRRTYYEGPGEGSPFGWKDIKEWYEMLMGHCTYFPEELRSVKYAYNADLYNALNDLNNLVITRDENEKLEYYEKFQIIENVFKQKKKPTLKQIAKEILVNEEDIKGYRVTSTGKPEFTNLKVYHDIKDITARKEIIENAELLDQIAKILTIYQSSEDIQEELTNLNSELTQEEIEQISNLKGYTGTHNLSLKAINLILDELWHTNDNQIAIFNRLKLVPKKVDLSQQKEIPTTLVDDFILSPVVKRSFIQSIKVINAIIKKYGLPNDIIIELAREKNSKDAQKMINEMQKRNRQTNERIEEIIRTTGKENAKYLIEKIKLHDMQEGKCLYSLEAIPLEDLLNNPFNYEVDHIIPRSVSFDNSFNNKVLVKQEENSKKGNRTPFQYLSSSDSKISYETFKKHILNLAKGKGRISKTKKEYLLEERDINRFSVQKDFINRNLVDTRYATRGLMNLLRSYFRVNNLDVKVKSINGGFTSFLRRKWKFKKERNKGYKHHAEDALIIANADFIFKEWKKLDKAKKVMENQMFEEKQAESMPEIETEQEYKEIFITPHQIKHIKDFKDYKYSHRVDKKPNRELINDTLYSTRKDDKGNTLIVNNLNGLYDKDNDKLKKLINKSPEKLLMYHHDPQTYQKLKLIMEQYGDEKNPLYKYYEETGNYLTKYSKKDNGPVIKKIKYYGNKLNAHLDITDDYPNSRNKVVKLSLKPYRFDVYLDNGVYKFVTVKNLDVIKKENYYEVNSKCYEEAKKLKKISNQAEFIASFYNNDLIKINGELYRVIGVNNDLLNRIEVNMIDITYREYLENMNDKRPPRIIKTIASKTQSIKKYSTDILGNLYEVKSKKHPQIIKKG
Assay: EMSA

B1: EGFP sgRNA + target dsDNA (T) (mixed)
RNA: GCAAGGGCGAGGAGCUGUUCACGUUUUAGUACUCUGGAAACAGAAUCUACUAAAACAAGGCAAAAUGCCGUGUUUAUCUCGUCAACUUGUUGGCGAGAUUUUU
DNA 1: TGGTGAGCAAGGGCGAGGAGCTGTTCACCGGGGT
DNA 2: ACCCCGGTGAACAGCTCCTCGCCCTTGCTCACCA
- binding result: binds
